By Ki is commonly meant a measure of affinity in units of concentration, obtained from inhibition or displacement.

This assay has as its target T1, kappa-opioid receptor (KOR-EGFP) (Mus musculus, UniProt P33534).
T1 chain: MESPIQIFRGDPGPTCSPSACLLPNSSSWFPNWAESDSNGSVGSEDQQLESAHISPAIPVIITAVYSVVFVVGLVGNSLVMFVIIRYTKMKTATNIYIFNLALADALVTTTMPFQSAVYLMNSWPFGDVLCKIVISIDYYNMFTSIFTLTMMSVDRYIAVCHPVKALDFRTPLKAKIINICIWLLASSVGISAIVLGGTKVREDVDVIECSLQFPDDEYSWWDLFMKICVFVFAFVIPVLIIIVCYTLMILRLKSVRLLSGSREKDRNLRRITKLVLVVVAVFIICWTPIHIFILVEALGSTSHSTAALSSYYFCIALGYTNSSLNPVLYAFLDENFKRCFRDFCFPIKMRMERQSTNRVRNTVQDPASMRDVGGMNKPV
The assay is described as follows: radioligand displacement ([3H]-diprenorphine). (Loss of bound radioactivity is the signal in a displacement assay; it reports binding, not function.)

Take MAWQGLVLAACLL [dynorphin A1-13 1-13]: the affinity corresponds to a Ki of 0.3 nM.

For the origin of these results see article PMC8406418 (2021).
